Measured values as given in patent publication US20250326813A1 (ELPIS BIOPHARMACEUTICALS, published 2025).
Where a chain is given by its changes, count along the chain named. Numbers in names are those of the source. One block for each binder: values may come before it.

Experiments:
[1] = target: T1, human IL2Rα Fc fusion protein (human, UniProt P01589 22-213, limits assumed); assay: ELISA on coated receptor-Fc, anti-His detection; grade by OD450 (medium: 0.7-1.5)
T1 construct: also called CD25; not shown: Fc part
T1 sequence (looked up): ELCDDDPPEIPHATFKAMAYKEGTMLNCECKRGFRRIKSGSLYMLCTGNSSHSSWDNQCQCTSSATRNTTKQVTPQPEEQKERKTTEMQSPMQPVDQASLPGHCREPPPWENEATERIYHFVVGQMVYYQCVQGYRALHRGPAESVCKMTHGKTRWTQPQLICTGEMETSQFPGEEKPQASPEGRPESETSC
Protocol: (§1) Mammalian cell-produced agonists were characterized for their binding activities to respective IL2Rβ and IL2Rα receptors by ELISA. Briefly, 384 well plate was immobilized with human IL2Rα and IL2Rβ Fc fusion proteins at a final concentration of 2 μg/mL in 1× PBS in total volume of 25 μL per well. The plate was incubated overnight at 4° C. and blocked with 80 μL of superblock per well for 1 hour. The purified clones were added to IL2Rα or IL-2Rβ wells in parallel in duplicates as a titration, with the highest concentration of 1 μM, followed by a 10 point 5× serial dilution of the clones. The binding activity was detected by adding 25 μL of anti-His HRP diluted at 1:5000 in 1× PBST. In between each step, the plate was washed three times with 1× PBST using a plate washer. The plate was then developed with 25 μL of TMB substrate for five minutes and stopped by adding 25 μL of 2N sulfuric acid. The plate was read at OD450 nm Biotek plate reader and the bar graph at 1 μM of IL2 was generated with Prism 8.1 software (FIG. 2).

[2] = target: T2, human IL2Rβ Fc fusion protein (human, UniProt P14784 27-239); assay: as above
T2 construct: also called ILR2β; CD122; not shown: Fc part
T2 sequence (looked up): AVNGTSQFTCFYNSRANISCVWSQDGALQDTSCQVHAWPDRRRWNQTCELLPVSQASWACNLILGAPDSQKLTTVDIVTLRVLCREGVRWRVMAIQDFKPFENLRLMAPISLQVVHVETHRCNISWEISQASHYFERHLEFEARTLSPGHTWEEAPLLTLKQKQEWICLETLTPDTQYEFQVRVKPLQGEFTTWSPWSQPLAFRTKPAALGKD
Protocol: as §1

[3] = target: T2, human IL2Rβ Fc fusion protein; assay: ELISA on coated receptor-Fc, anti-His detection, single point 1 µM
Protocol: Back-mutations were characterized for their binding activities to IL2Rβ and IL2Rα receptors by ELISA. Briefly, 384 well plate was immobilized with human IL2Rα and IL2Rβ Fc fusion proteins at a final concentration of 2 μg/mL in 1× PBS in total volume of 25 μL per well. The plate was incubated overnight at 4° C. and blocked with 80 μL of superblock per well for 1 hour. […] The IL2 mutant binding was detected by adding 25 μL of anti-His HRP diluted at 1:5000 in 1× PBST. In between each step, the plate was washed three times with 1× PBST using a plate washer. […] The plate was then developed with 25 μL of TMB substrate for five minutes and stopped by adding 25 μl of 2N sulfuric acid. The plate was read at OD450 nm Biotek plate reader (Table 6) and the data was analyzed with Prism 8.1 software to generate bar graph (FIG. 5).

[4] = target: T2, human IL2Rβ Fc fusion protein; assay: SPR (Biacore T200), receptor captured on Protein A chip, IL2 at 100 nM and 20 nM
Protocol: (§2) The assay was run with Biacore T200 control software version 2.0. For each cycle, 1 μg/mL of human IL2Rβ or IL2Rα was captured for 60 seconds at flow rate of 10 μL/min on flow cell 2 in 1× HBSP buffer on Protein A sensor chip. 100 nM and 20 nM of HIS tag purified engineered IL2 mutant was injected onto both reference flow cell 1 and IL2Rβ or IL2Rα captured flow cell 2 for 150 seconds at flow rate of 30 μL/min followed by washing for 300 seconds. The flow cells were then regenerated with Glycine pH 2 for 60 seconds at a flow rate of 30 μL/mins. The kinetics data was analyzed with Biacore T200 evaluation software 3000. The specific binding response unit was derived from subtraction of binding to reference flow cell 1 from target flow cell 2.

[5] = target: T2, human IL2Rβ Fc fusion protein; assay: ELISA: human IL2Rβ Fc fusion coated at 2 µg/mL, purified His-tagged IL2 titrated from 1 µM in 5x steps, anti-His HRP, OD450
Protocol: as §1

[6] = target: T2, human IL2Rβ Fc fusion protein; assay: SPR (Biacore T200), receptor captured on Protein A chip
Protocol: as §2

[7] = target: T1, human IL2Rα Fc fusion protein; assay: ELISA, single concentration, anti-flag detection, E. coli-produced clone
Protocol: (§3) Supernatants containing engineered IL2 mutants were assessed with sandwich ELISA assay to screen for IL2Rα binding. Briefly, 96-well plate was immobilized with human Fc and human IL2Rα, respectively, at a final concentration of 2 μg/mL in 1× PBS in total volume of 50 μL per well. The plate was incubated overnight at 4° C. followed by blocking with 200 μL of superblock per well for 1 hour. 100 μl of supernatant was added to both Fc and IL2Rα immobilized wells and incubated for 1 hour with shaking. The engineered IL2 mutant binding was detected by adding 50 μL of anti-Flag HRP diluted at 1:5000 in 1× PBST. In between each step, the plate was washed three times with 1× PBST in a plate washer. The plate was then developed with 50 μL of TMB substrate for five minutes and stopped by adding 50 μL of 2N sulfuric acid. The plate was read at OD450 nm using a Biotek plate reader and the binding and selectivity was analyzed.
as §3, with “Single clones were next screened for IL2Rβ binding. IL2Rβ binding screening ELISA was developed for the identification of individual” for “Supernatants containing”, “mutant.” for “mutants were assessed with sandwich ELISA assay to screen for IL2Rα binding.”, “IL2Rβ,” for “IL2Rα,”, “IL2Rβ” for “IL2Rα”
(§4) To further triage, the engineered IL2 clones with unique sequences were produced in E. coli. In short, the glycerol stock of each engineered agonist clone was inoculated into TB medium for overnight growth. The next day, cells from the overnight culture were inoculated into TB medium and grown to a cell density of OD₆₀₀ between 0.6-0.8. IPTG was added to a final concentration of 1 mM to induce the expression during culture at 30° C. overnight. The supernatant was collected by centrifugation.

[8] = target: T2, human IL2Rβ Fc fusion protein; assay: as above
Protocol: as §3
as §3, with “Single clones were next screened for IL2Rβ binding. IL2Rβ binding screening ELISA was developed for the identification of individual” for “Supernatants containing”, “mutant.” for “mutants were assessed with sandwich ELISA assay to screen for IL2Rα binding.”, “IL2Rβ,” for “IL2Rα,”, “IL2Rβ” for “IL2Rα”
as §4

[9] = target: T1, human IL2Rα Fc fusion protein; assay: SPR (Biacore T200), receptor captured on Protein A chip, IL2 at 100 nM and 20 nM
Protocol: as §2

- OD450 [1]: 0.7 to 1.5 od
- OD450 [2]: 0.7 to 1.5 od
B1: EP565, mammalian cell-produced, with F35L, R38D and F42R (ligand)
chain: APASSSTKKTQLQLEHLLLDLQMILNGINNYKNPLLTDMLTRKFYMPKKATELKHLQCLEEELKPLEEVLNLAQSKNFHLRSRQLISNMNGIILKLKGSETTFMCEYADETATIVEFLNRWITFSQSIISTLT
notes: His-Flag tag not in the parts; also called 2021EP22-F10

- Average OD (450 nm) [3]: 1.63 OD450
- Kd [4]: 1.03 nM
- EC50 (read off the curve) [5]: ~1 nM
B2: EP596, IL2Rβ enhanced binding agonist (ligand)
chain: B1 chain with R81T, S82A, Q84D, L85A, S87D, M89I, G91V, I93V, L94Q, K95E
notes: Control in SPR and ELISA

- OD450 nm [7]: 0.05 OD450
- OD450 nm [8]: 0.068 OD450
- Kd [9]: 188 nM
B3: EP567 (clone 2021EP21-C04), E. coli-produced (ligand)
chain: APASSSTKKTQLQLEHLLLDLQMILNGINNYKNPKLTRMLTFKFYMPKKATELKHLQCLEEELKPLEEVLNLAQSKNFHLSLREPIGNIVTSVRELKGSETTFMCEYADETATIVEFLNRWITFSQSIISTLT
- binding result [6]: no binding (tested: Rmax < 5RU; 100 nM and 20 nM)
